Test results from the supplement of paper PMC10567573.

B1: KRT71 (parent)
chain: FGSRSLYSLGGVRSLNVASGSGKS

Variants of: B1
Assay: protein stability index of a GFP-peptide fusion (GPS, HEK-293T) (PSI 1-6); higher = more stable
Details: c terminus: a fixed tail appended
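Further: lentivirally expressed fusions sorted by FACS into six bins by GFP to DsRed ratio, PSI derived from sequencing read proportions per bin multiplied by bin number.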

Question: For FGSRILYSLGGVRSLNVASGSGKS [S5I], which protein stability index is on record?
Answer: 2.19

Question: For FGSRQLYSLGGVRSLNVASGSGKS [S5Q], which protein stability index is on record?
Answer: 2.16

Question: With FGSRWLYSLGGVRSLNVASGSGKS [S5W] as the variant, how does the protein stability index read?
Answer: 2.33

Question: Which protein stability index does the source give for FGSRELYSLGGVRSLNVASGSGKS [S5E] here?
Answer: 2.77

Question: With FGSRRLYSLGGVRSLNVASGSGKS [S5R] as the variant, how does the protein stability index read?
Answer: 2.77

Question: For FGSRMLYSLGGVRSLNVASGSGKS [S5M], which protein stability index is on record?
Answer: 1.62

Question: With FGSRDLYSLGGVRSLNVASGSGKS [S5D] as the variant, how does the protein stability index read?
Answer: 2.31

Question: With FGSRCLYSLGGVRSLNVASGSGKS [S5C] as the variant, how does the protein stability index read?
Answer: 1.5

Question: With FGSRLLYSLGGVRSLNVASGSGKS [S5L] as the variant, how does the protein stability index read?
Answer: 2.15

Question: For FGSRPLYSLGGVRSLNVASGSGKS [S5P], which protein stability index is on record?
Answer: 2.91

Question: Which protein stability index does the source give for FGSRFLYSLGGVRSLNVASGSGKS [S5F] here?
Answer: 1.95

Question: For FGSRGLYSLGGVRSLNVASGSGKS [S5G], which protein stability index is on record?
Answer: 1.6

Question: For FGSRALYSLGGVRSLNVASGSGKS [S5A], which protein stability index is on record?
Answer: 2.35

Question: For FGSRHLYSLGGVRSLNVASGSGKS [S5H], which protein stability index is on record?
Answer: 2.24

Question: With FGSRYLYSLGGVRSLNVASGSGKS [S5Y] as the variant, how does the protein stability index read?
Answer: 1.36

Question: For FGSRSCYSLGGVRSLNVASGSGKS [L6C], which protein stability index is on record?
Answer: 2.04

Question: For FGSRSAYSLGGVRSLNVASGSGKS [L6A], which protein stability index is on record?
Answer: 1.67

Question: Which protein stability index does the source give for FGSRSDYSLGGVRSLNVASGSGKS [L6D] here?
Answer: 3.7

Question: Which protein stability index does the source give for FTSRSLYSLGGVRSLNVASGSGKS [G2T] here?
Answer: 1.32

Question: With FISRSLYSLGGVRSLNVASGSGKS [G2I] as the variant, how does the protein stability index read?
Answer: 1.78

Question: For FMSRSLYSLGGVRSLNVASGSGKS [G2M], which protein stability index is on record?
Answer: 1.99

Question: Which protein stability index does the source give for FPSRSLYSLGGVRSLNVASGSGKS [G2P] here?
Answer: 2.07

Question: With FRSRSLYSLGGVRSLNVASGSGKS [G2R] as the variant, how does the protein stability index read?
Answer: 3.5

Question: With FKSRSLYSLGGVRSLNVASGSGKS [G2K] as the variant, how does the protein stability index read?
Answer: 3.75

Question: Which protein stability index does the source give for FQSRSLYSLGGVRSLNVASGSGKS [G2Q] here?
Answer: 3.09

Question: For FSSRSLYSLGGVRSLNVASGSGKS [G2S], which protein stability index is on record?
Answer: 1.99

Question: With FCSRSLYSLGGVRSLNVASGSGKS [G2C] as the variant, how does the protein stability index read?
Answer: 3.47

Question: For FHSRSLYSLGGVRSLNVASGSGKS [G2H], which protein stability index is on record?
Answer: 1.32

Question: For FNSRSLYSLGGVRSLNVASGSGKS [G2N], which protein stability index is on record?
Answer: 2.58

Question: For FVSRSLYSLGGVRSLNVASGSGKS [G2V], which protein stability index is on record?
Answer: 3.98

Question: Which protein stability index does the source give for FLSRSLYSLGGVRSLNVASGSGKS [G2L] here?
Answer: 2.45

Question: For FWSRSLYSLGGVRSLNVASGSGKS [G2W], which protein stability index is on record?
Answer: 1.8

Question: With FESRSLYSLGGVRSLNVASGSGKS [G2E] as the variant, how does the protein stability index read?
Answer: 3.3

Question: With FDSRSLYSLGGVRSLNVASGSGKS [G2D] as the variant, how does the protein stability index read?
Answer: 3.02

Question: For FYSRSLYSLGGVRSLNVASGSGKS [G2Y], which protein stability index is on record?
Answer: 2.08

Question: Which protein stability index does the source give for FASRSLYSLGGVRSLNVASGSGKS [G2A] here?
Answer: 2.02

Question: With FFSRSLYSLGGVRSLNVASGSGKS [G2F] as the variant, how does the protein stability index read?
Answer: 2.33

Question: For FGTRSLYSLGGVRSLNVASGSGKS [S3T], which protein stability index is on record?
Answer: 1.95

Question: With FGYRSLYSLGGVRSLNVASGSGKS [S3Y] as the variant, how does the protein stability index read?
Answer: 2.7

Question: Which protein stability index does the source give for FGHRSLYSLGGVRSLNVASGSGKS [S3H] here?
Answer: 2.06

Question: Which protein stability index does the source give for FGMRSLYSLGGVRSLNVASGSGKS [S3M] here?
Answer: 2.21

Question: Which protein stability index does the source give for FGIRSLYSLGGVRSLNVASGSGKS [S3I] here?
Answer: 2.37

Question: Which protein stability index does the source give for FGWRSLYSLGGVRSLNVASGSGKS [S3W] here?
Answer: 1.59

Question: With FGRRSLYSLGGVRSLNVASGSGKS [S3R] as the variant, how does the protein stability index read?
Answer: 1.97

Question: Which protein stability index does the source give for FGFRSLYSLGGVRSLNVASGSGKS [S3F] here?
Answer: 2.22

Question: For FGDRSLYSLGGVRSLNVASGSGKS [S3D], which protein stability index is on record?
Answer: 1.43

Question: Which protein stability index does the source give for FGERSLYSLGGVRSLNVASGSGKS [S3E] here?
Answer: 2.22

Question: For FGCRSLYSLGGVRSLNVASGSGKS [S3C], which protein stability index is on record?
Answer: 1.56

Question: For FGVRSLYSLGGVRSLNVASGSGKS [S3V], which protein stability index is on record?
Answer: 2.23

Question: With FGNRSLYSLGGVRSLNVASGSGKS [S3N] as the variant, how does the protein stability index read?
Answer: 1.26

Question: Which protein stability index does the source give for FGGRSLYSLGGVRSLNVASGSGKS [S3G] here?
Answer: 1.84

Question: Which protein stability index does the source give for FGARSLYSLGGVRSLNVASGSGKS [S3A] here?
Answer: 2.19

Question: For FGQRSLYSLGGVRSLNVASGSGKS [S3Q], which protein stability index is on record?
Answer: 2.09

Question: Which protein stability index does the source give for FGKRSLYSLGGVRSLNVASGSGKS [S3K] here?
Answer: 1.78

Question: Which protein stability index does the source give for FGPRSLYSLGGVRSLNVASGSGKS [S3P] here?
Answer: 2.71

Question: For FGLRSLYSLGGVRSLNVASGSGKS [S3L], which protein stability index is on record?
Answer: 2.47

Question: Which protein stability index does the source give for FGSHSLYSLGGVRSLNVASGSGKS [R4H] here?
Answer: 2.15

Question: Which protein stability index does the source give for FGSWSLYSLGGVRSLNVASGSGKS [R4W] here?
Answer: 1.62

Question: For FGSPSLYSLGGVRSLNVASGSGKS [R4P], which protein stability index is on record?
Answer: 1.35

Question: Which protein stability index does the source give for FGSSSLYSLGGVRSLNVASGSGKS [R4S] here?
Answer: 2.31

Question: For FGSMSLYSLGGVRSLNVASGSGKS [R4M], which protein stability index is on record?
Answer: 1.88

Question: With FGSKSLYSLGGVRSLNVASGSGKS [R4K] as the variant, how does the protein stability index read?
Answer: 2.14

Question: With FGSVSLYSLGGVRSLNVASGSGKS [R4V] as the variant, how does the protein stability index read?
Answer: 1.52

Question: With FGSYSLYSLGGVRSLNVASGSGKS [R4Y] as the variant, how does the protein stability index read?
Answer: 2.77

Question: For FGSCSLYSLGGVRSLNVASGSGKS [R4C], which protein stability index is on record?
Answer: 2.35

Question: With FGSESLYSLGGVRSLNVASGSGKS [R4E] as the variant, how does the protein stability index read?
Answer: 2.44

Question: Which protein stability index does the source give for FGSFSLYSLGGVRSLNVASGSGKS [R4F] here?
Answer: 1.58

Question: Which protein stability index does the source give for FGSASLYSLGGVRSLNVASGSGKS [R4A] here?
Answer: 2.71

Question: With FGSNSLYSLGGVRSLNVASGSGKS [R4N] as the variant, how does the protein stability index read?
Answer: 2.12

Question: Which protein stability index does the source give for FGSGSLYSLGGVRSLNVASGSGKS [R4G] here?
Answer: 2.56

Question: Which protein stability index does the source give for FGSDSLYSLGGVRSLNVASGSGKS [R4D] here?
Answer: 2.44

Question: Which protein stability index does the source give for FGSQSLYSLGGVRSLNVASGSGKS [R4Q] here?
Answer: 2.5

Question: With FGSTSLYSLGGVRSLNVASGSGKS [R4T] as the variant, how does the protein stability index read?
Answer: 2

Question: For FGSLSLYSLGGVRSLNVASGSGKS [R4L], which protein stability index is on record?
Answer: 1.75

Question: With FGSISLYSLGGVRSLNVASGSGKS [R4I] as the variant, how does the protein stability index read?
Answer: 1.7

Question: Which protein stability index does the source give for EGSRSLYSLGGVRSLNVASGSGKS [F1E] here?
Answer: 3.83

Question: Which protein stability index does the source give for QGSRSLYSLGGVRSLNVASGSGKS [F1Q] here?
Answer: 4.4

Question: Which protein stability index does the source give for TGSRSLYSLGGVRSLNVASGSGKS [F1T] here?
Answer: 3.59

Question: Which protein stability index does the source give for KGSRSLYSLGGVRSLNVASGSGKS [F1K] here?
Answer: 4.06

Question: For YGSRSLYSLGGVRSLNVASGSGKS [F1Y], which protein stability index is on record?
Answer: 1.64

Question: With DGSRSLYSLGGVRSLNVASGSGKS [F1D] as the variant, how does the protein stability index read?
Answer: 4.03

Question: With WGSRSLYSLGGVRSLNVASGSGKS [F1W] as the variant, how does the protein stability index read?
Answer: 2.16

Question: For HGSRSLYSLGGVRSLNVASGSGKS [F1H], which protein stability index is on record?
Answer: 3.98

Question: Which protein stability index does the source give for AGSRSLYSLGGVRSLNVASGSGKS [F1A] here?
Answer: 4.02

Question: Which protein stability index does the source give for RGSRSLYSLGGVRSLNVASGSGKS [F1R] here?
Answer: 3.55

Question: For PGSRSLYSLGGVRSLNVASGSGKS [F1P], which protein stability index is on record?
Answer: 3.92

Question: With SGSRSLYSLGGVRSLNVASGSGKS [F1S] as the variant, how does the protein stability index read?
Answer: 4.56

Question: With MGSRSLYSLGGVRSLNVASGSGKS [F1M] as the variant, how does the protein stability index read?
Answer: 3.75

Question: For IGSRSLYSLGGVRSLNVASGSGKS [F1I], which protein stability index is on record?
Answer: 3.33

Question: With GGSRSLYSLGGVRSLNVASGSGKS [F1G] as the variant, how does the protein stability index read?
Answer: 3.44

Question: Which protein stability index does the source give for CGSRSLYSLGGVRSLNVASGSGKS [F1C] here?
Answer: 2.87

Question: For NGSRSLYSLGGVRSLNVASGSGKS [F1N], which protein stability index is on record?
Answer: 3.85

Question: For LGSRSLYSLGGVRSLNVASGSGKS [F1L], which protein stability index is on record?
Answer: 3.43

Question: Which protein stability index does the source give for VGSRSLYSLGGVRSLNVASGSGKS [F1V] here?
Answer: 3.81
